# Measurements as given in patent publication US11807689.
# Molecular target: C1q Receptor in the complement system (rabbit serum complement) (rabbit)
# Assay: cell-based or functional assay
row,"CDC EC50 (Jeko-1 cells, rabbit serum) [µg/mL]",Substance
1,0.353,ARZERRA (ofatumumab) (antibody)
2,1.21,OCREVUS (ocrelizumab) (antibody)
3,0.245,RITUXAN (rituximab) (antibody)
